These results are taken from paper PMC3835790, “Statistical Experimental Design Guided Optimization of a One-Pot Biphasic Multienzyme Total Synthesis of Amorpha-4,11-diene” (PLoS ONE, 2013).

The test system of this series is CC(C)=CCC/C(C)=C/CC/C(C)=C/CO[P@@](=O)(O)OP(=O)(O)O. In words: purified protein. Conditions: 100 mM Tris/HCl pH 7.4, 30°C, substrate not printed in the table row, FPP from the pathway.

Chain of amorpha-4,11-diene synthase (Ads) (Artemisia annua) (chain, as listed by the source): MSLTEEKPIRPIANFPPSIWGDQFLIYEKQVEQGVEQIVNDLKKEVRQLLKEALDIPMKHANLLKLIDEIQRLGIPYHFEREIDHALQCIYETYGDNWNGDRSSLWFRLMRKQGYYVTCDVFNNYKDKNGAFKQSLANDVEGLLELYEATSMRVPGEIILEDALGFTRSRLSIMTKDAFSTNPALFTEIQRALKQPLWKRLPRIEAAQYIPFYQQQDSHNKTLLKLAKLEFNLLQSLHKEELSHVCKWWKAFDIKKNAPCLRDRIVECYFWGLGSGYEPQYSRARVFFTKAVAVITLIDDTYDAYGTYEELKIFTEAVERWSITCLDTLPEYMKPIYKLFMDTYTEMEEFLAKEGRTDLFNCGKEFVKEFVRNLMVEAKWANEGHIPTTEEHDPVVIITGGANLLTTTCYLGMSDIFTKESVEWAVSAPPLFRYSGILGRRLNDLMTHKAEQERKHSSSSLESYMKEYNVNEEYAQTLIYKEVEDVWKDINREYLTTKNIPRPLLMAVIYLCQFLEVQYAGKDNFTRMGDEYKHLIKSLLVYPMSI

In the case of “amorpha-4,11-diene synthase (Ads) (Artemisia annua)”, the Km is 43.72 ± 10.4 µM and the kcat came out at 0.05 s⁻¹.
